This is an account of results in patent US7361741 (LIPTON DIVISION OF CONOPCO, dated 2008).

Assay [1] deals with T1, Human Pancreatic Lipase (human, UniProt P16233 17-465, in ELISA and phage selections: biotin (EZ link NHS-biotin) on free NH2-groups, molar ratio biotin to lipase 15 to 1; not biotinylated in the enzyme activity assay).
T1 construct: mature; Natural enzyme purified from a human source; In ELISA it was captured as biotinylated HPL on coated streptavidin; also called HPL; biotinylated HPL
T1 sequence (looked up): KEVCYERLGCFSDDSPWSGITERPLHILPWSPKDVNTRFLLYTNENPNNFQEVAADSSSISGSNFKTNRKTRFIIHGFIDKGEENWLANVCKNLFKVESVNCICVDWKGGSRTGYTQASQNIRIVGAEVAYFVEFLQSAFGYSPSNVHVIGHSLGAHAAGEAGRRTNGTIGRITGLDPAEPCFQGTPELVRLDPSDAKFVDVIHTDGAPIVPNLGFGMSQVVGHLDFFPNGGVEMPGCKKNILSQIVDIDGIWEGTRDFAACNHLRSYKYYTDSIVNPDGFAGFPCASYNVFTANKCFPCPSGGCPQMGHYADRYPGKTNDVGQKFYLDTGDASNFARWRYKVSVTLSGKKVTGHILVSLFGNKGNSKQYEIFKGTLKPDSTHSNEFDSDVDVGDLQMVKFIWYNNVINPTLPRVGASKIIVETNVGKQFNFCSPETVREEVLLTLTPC
In words: ELISA, yeast culture medium on biotinylated HPL captured by streptavidin. On the procedure:
For ELISA in vitro biotinylated HPL (prepared as described in paragraph 2.2) was immobilised indirectly via streptavidin. Streptavidin was coated at 5 µg/ml in Phosphate Buffered Saline (PBS) during two hours at room temperature in MAXISORB plates (NUNC). The coat solution was removed and, after washing with 0.05 vol % Tween-20 in PBS (PBST), the wells were blocked during 30 minutes at room temperature with a 4 wt % skimmed milk solution made in PBS. Biotinylated HPL was captured by the coated streptavidin during 16 hours at 4° C. from a solution with a concentration of 2.5 µg/ml enzyme in PBST, followed by washing of the plate with PBTS to remove free biotinylated HPL.
Two clones from each construct were grown for 24 hours at 30° C. in YNB medium (0.67% Yeast Nitrogen without amino acids (Difio)) containing 2% glucose. For V_HH gene expression both pre-cultures were diluted 1/10 in 1 ml of YPD medium (1% yeast extract, 2% peptone, 2% glucose, 2% galactose) for induction of the GAL7 promoter and grown during 48 hours at 30° C. using 8 wells culture plates for cultivation. The V_HH production in the medium fraction of these clones was examined by analysis on a Coomassie blue stained polyacrylamide gel. Their functional characteristics were confirmed in ELISA on indirectly immobilised biotinylated HPL and in the lipase enzyme activity assay.
(In general: In an ELISA, binding on a coated surface is turned into a signal by an enzyme label.)

Assay [2] deals with T1, Human Pancreatic Lipase. In words: phage display selection in solution with biotinylated HPL, capture on streptavidin beads. The protocol: Free V_HH fragments were removed by precipitation of phage from the culture supernatant with PEG6000, thereby avoiding a disturbing competition between phage bound and free V_HH fragments. "In solution" capture of *E. coli* phage exposing HPL specific antibody fragments was performed with in vitro biotinylated lipase (EZ link NHS-biotin) covalently coupled to free NH_2-groups of the lipase according to the instructions of the supplier; the molar ratio between biotin and lipase was 15 to 1). For selection 15 nM and 40 nM Human Pancreatic Lipase was used in round one and 0.6 nM and 3 nM in round two. The carboxy terminal domain was prepared by proteolysis with chymotrypsin and purified with reversed phase HPLC. Lipase was biotinylated and used for selection of the immune library (combined short hinge and long hinge) at 15 and 70 nM during round one and at 1 and 3 and 15 nM during round two. During the binding phase of the selection "application conditions" (inclusion of 5.3 mM cholic acid and 36 mM deoxycholate) were used.

The target of assay [3] is T1, Human Pancreatic Lipase. Put plainly: ELISA on biotinylated HPL, E. coli and yeast produced VHH.
For assay [4], the target named is T2, protein A (UniProt P38507 37-477).
T2 construct: also called protein A sepharose (Pharmacia)
Put plainly: affinity chromatography on protein A sepharose.

Changes are numbered by the printed parent chain.

B1: HPL#18 (VHH)
VHH: QVQLQDSGGGLVQAGGSLRLSCAASGTIGDIYTMAWHRQAPGKERELVASATESGSPNYADPVKGRFTISRDNGKLTVYLQMNSLKPEDTAVYYCNALIRRKFTSEYNEYWGQGTQVTVSS
notes: Llama VHH; E. coli form (pUR5086): with hinge and myc-tag; Yeast forms: PstI/BstEII fragment, untagged (pUR5092) or with myc/His6 tags (pUR5263); also called anti-HPL18; αHPL18
Regarding B1, the binding result in assay [1] was “binds”.

B2: HPL#11 (VHH)
VHH: QVQLQDSGGGLVQAGGSLRLSCAASGSIFSSDLMGWYRQAPGKEREAVARITRGGTTSYADSVKGRFTISRDNAKNTMYLQMNSLKPEDTAVYYCNARRSNYDRSWGDYWGQGTQVTVSS
notes: Llama VHH; E. coli form (pUR5084): VHH with hinge and C-terminal myc-tag; Yeast forms: PstI/BstEII VHH fragment, untagged (pUR5091) or with myc-tag and hexahistidine tail (pUR5099); also called anti-HPL VHH fragment HPL#11
Consider B2, for which the binding result in assay [2] is “binds”.

B3: HPL#12 (VHH)
VHH: QVQLQESGGGLVQAGGSLRLSCAASGSIGSIHTMGWYRQTPGKERDVVATIQDGGSTNYADSVKGRFTISRDNTLNTVYLQMNDLKPEDTAVYYCNADVRPYRTSRYLEVWGQGTLVTVSS
notes: Llama VHH produced in E. coli from the phagemid, with hinge and C-terminal myc-tag; also called anti-HPL VHH fragment HPL#12
Consider B3, for which, in assay [2], the binding result is “binds”.

B4: HPL#14 (VHH)
VHH: B3 VHH with K43T, T74I, D84S, Y94H, V110L
notes: Llama VHH; Yeast form (pUR5265): PstI/NotI fragment including the hinge region, followed by myc- and hexahistidine tags; also called anti-HPL VHH fragment HPL#14
With B4, in assay [1], the binding result was “binds”.

B5: HPL#13 (VHH)
VHH: QVQLQESGGGLVQAGGSLRLSCAASGTILSIIYMDWYRQTPGKQRELVGRITAGGSTNYADSAKGRFTISKDNAKNTVYLQMNSLKPEDTAVYYCNALITRWDKSVNDYWGQGTQVTVSS
notes: Llama VHH; E. coli form (pUR5082): with hinge and myc-tag; Yeast forms: PstI/BstEII fragment, untagged (pUR5090) or with myc/His6 tags (pUR5098); also called anti-HPL VHH fragment HPL#13
As to B5, the binding result in assay [3] was “binds”.

B6: HPL#19 (VHH)
VHH: QVQLQDSGGGLVQTGGSLRLSCAASGPIGDVYLMGWYRQAPGKQREMVASITATGPPNYTDSVKGRFTISRDNDKNTEYLQMNNLKPEDTAVYYCNAQVRVRFSSDYTNYWGQGTQVTVSSEPKTPKPQP
notes: Llama VHH; E. coli form (pUR5087): with hinge and myc-tag; Yeast forms: PstI/BstEII fragment, untagged (pUR5093) or with myc/His6 tags (pUR5264); also called anti-HPL VHH fragment HPL#19
For B6, the binding result in assay [1] is listed as “binds”; in assay [4], “no binding”.

B7: HPL#15 (VHH)
VHH: QVQLQESGGGLVQAGGSLRLSCAASGSISSINVMGWFRQAPGKQRELVASITSGGSTNYADSLKGRFTISRDNAKNAVYLQMNNLKPEDTAVYYCNAHITPAGSSNYVYGYWGHGTKVTVSS
notes: Llama VHH; E. coli form (pUR5095): with hinge and myc-tag; Yeast forms: PstI/BstEII fragment, untagged (pUR1403) or with myc/His6 tags (pUR5097); also called anti-HPL VHH fragment HPL#15
Consider B7, for which, in assay [1], the binding result is reported as “binds”.
